Test results as given in PMC7290940.

Legend:
Assay in all cases: SEC; single purified protein on Superdex 200 10/300 GL, apparent mass against protein standards
[1] = molecular target: full-length gp44 with C-terminal His6 tag (gp44–His), bacteriophage 80α (Staphylococcus aureus bacteriophage 80α)
[2] = molecular target: gp44-NTD-His (gp44 residues 1–271) (Staphylococcus aureus bacteriophage 80α)
[3] = molecular target: untagged CI immunity repressor of bacteriophage 80α (Staphylococcus aureus bacteriophage 80α)
[4] = molecular target: untagged gp44 of bacteriophage 80α (Staphylococcus aureus bacteriophage 80α)

Substance: full-length gp44 with C-terminal His6 tag (gp44–His), bacteriophage 80α (natural protein)
- stoichiometry N [1]: 2

Substance: gp44-NTD-His (gp44 residues 1–271) (domain or fragment)
- stoichiometry N [2]: 2

Substance: untagged CI immunity repressor of bacteriophage 80α (natural protein)
- stoichiometry N [3]: 2

Substance: untagged gp44 of bacteriophage 80α (natural protein)
- stoichiometry N [4]: 2
